Key:
[1] = target: mini1 cluster11 (A/Brisbane/59/2007) (influenza A virus H1N1, UniProt A8C8J4 18-565); test: FACS on HEK293F
[2] = target: mini2 cluster11 (A/Brisbane/59/2007) (influenza A virus H1N1, UniProt A8C8J4 18-565); test: FACS on HEK293F
[3] = target: mini3 cluster11 (A/Brisbane/59/2007) (influenza A virus H1N1, UniProt A8C8J4 18-565); test: FACS on HEK293F
H3 Mini-HA cluster 1 = H3 Mini-HA cluster 1 (influenza A virus H3N2, UniProt O11283 17-566); test: FACS on HEK293F [D00010 FIG. 8B]
H3 Mini-HA cluster 1+2 = H3 Mini-HA cluster 1+2 (influenza A virus H3N2, UniProt O11283 17-566); test: FACS on HEK293F [D00010 FIG. 8B]
H3 Mini-HA cluster 1+3 = H3 Mini-HA cluster 1+3 (influenza A virus H3N2, UniProt O11283 17-566); test: FACS on HEK293F [D00010 FIG. 8B]
H3 Mini-HA cluster 1+4 = H3 Mini-HA cluster 1+4 (influenza A virus H3N2, UniProt O11283 17-566); test: FACS on HEK293F [D00010 FIG. 8B]
H3 Mini-HA cluster 1+6 = H3 Mini-HA cluster 1+6 (influenza A virus H3N2, UniProt O11283 17-566); test: FACS on HEK293F [D00010 FIG. 8B]
H3 Mini-HA cluster 1+7 = H3 Mini-HA cluster 1+7 (influenza A virus H3N2, UniProt O11283 17-566); test: FACS on HEK293F [D00010 FIG. 8B]
H3 Mini-HA cluster 1+8 = H3 Mini-HA cluster 1+8 (influenza A virus H3N2, UniProt O11283 17-566); test: FACS on HEK293F [D00010 FIG. 8B]
H3-mini2 = H3-mini2 (influenza A virus H3N2, UniProt O11283 17-566); test: FACS on HEK293F [D00012 FIG. 9B]
H3-mini2-cl9+10 = H3-mini2-cl9+10 (influenza A virus H3N2, UniProt O11283 17-566); test: FACS on HEK293F [D00012 FIG. 9B]
H3-mini2-cl9+11 = H3-mini2-cl9+11 (influenza A virus H3N2, UniProt O11283 17-566); test: FACS on HEK293F [D00012 FIG. 9B]
H3-mini2-cl9+10+11 = H3-mini2-cl9+10+11 (influenza A virus H3N2, UniProt O11283 17-566); test: FACS on HEK293F [D00012 FIG. 9B]
H3-mini2-cl9+10+11-tri = H3-mini2-cl9+10+11-tri (influenza A virus H3N2); test: FACS on HEK293F [D00012 FIG. 9B]
H3mini2-cl9+10+11-GCN4 = H3mini2-cl9+10+11-GCN4 (influenza A virus H3N2); test: FACS on HEK293F [D00012 FIG. 9B]
H3-mini2-cl9+10+11+12 = H3-mini2-cl9+10+11+12 (influenza A virus H3N2, UniProt O11283 17-566); test: FACS on HEK293F [D00012 FIG. 9B]
H3-mini2-cl9+10+12 = H3-mini2-cl9+10+12 (influenza A virus H3N2, UniProt O11283 17-566); test: FACS on HEK293F [D00012 FIG. 9B]
[4] = target: H3-mini2-cl9+10+11+12-GCN4 (influenza A virus H3N2, UniProt O11283 17-566); test: FACS on HEK293F [D00012 FIG. 9B]
[5] = target: H3-mini2-cl9+10+11+12-tri (influenza A virus H3N2, UniProt O11283 17-566); test: FACS on HEK293F [D00012 FIG. 9B]
H3-mini2-cl9+13 = H3-mini2-cl9+13 (influenza A virus H3N2, UniProt O11283 17-566); test: FACS on HEK293F [D00012 FIG. 9B]
H3-mini2-cl9+10+11+13 = H3-mini2-cl9+10+11+13 (influenza A virus H3N2, UniProt O11283 17-566); test: FACS on HEK293F [D00012 FIG. 9B]
[6] = target: H3-mini2-cl9+10+11+13-GCN4 (influenza A virus H3N2); test: FACS on HEK293F [D00012 FIG. 9B]
[7] = target: H3-mini2-cl9+10+11+13-tri (influenza A virus H3N2); test: FACS on HEK293F [D00012 FIG. 9B]
H3-mini3-cl9+10+11+12+14 = H3-mini3-cl9+10+11+12+14 (influenza A virus H3N2, UniProt O11283 17-566); test: FACS on HEK293F [D00012 FIG. 9B]
H3-mini4-cl9+10+11+12+14 = H3-mini4-cl9+10+11+12+14 (influenza A virus H3N2, UniProt O11283 17-566); test: FACS on HEK293F [D00012 FIG. 9B]
[8] = target: H3 Full-length A/Hong Kong/1/1968 (influenza A virus H3N2, UniProt Q91MA7 17-566); test: FACS on HEK293F [D00014 FIG. 10B]

B1: CR6261 (antibody, V domains shown)
VH: EVQLVESGAEVKKPGSSVKVSCKASGGPFRSYAISWVRQAPGQGPEWMGGIIPIFGTTKYAPKFQGRVTITADDFAGTVYMELSSLRSEDTAMYYCAKHMGYQVRETMDVWGKGTTVTVSS
VL: QSVLTQPPSVSAAPGQKVTISCSGSSSNIGNDYVSWYQQLPGTAPKLLIYDNNKRPSGIPDRFSGSKSGTSATLGITGLQTGDEANYYCATWDRRPTAYVVFGGGTKLTVLG
B1: binds [1]; binds [2]; binds [3]. B1: no binding (tested: 5 ug/ml) (H3 Mini-HA cluster 1); no binding (tested: 5 ug/ml) (H3 Mini-HA cluster 1+2); no binding (tested: 5 ug/ml) (H3 Mini-HA cluster 1+3). B1: no binding (tested: 5 ug/ml) (H3 Mini-HA cluster 1+4); no binding (tested: 5 ug/ml) (H3 Mini-HA cluster 1+6); no binding (tested: 5 ug/ml) (H3 Mini-HA cluster 1+7). B1: no binding (tested: 5 ug/ml) (H3 Mini-HA cluster 1+8); no binding (tested: 5 ug/ml) (H3-mini2); no binding (tested: 5 ug/ml) (H3-mini2-cl9+10). B1: no binding (tested: 5 ug/ml) (H3-mini2-cl9+11); no binding (tested: 5 ug/ml) (H3-mini2-cl9+10+11); no binding (tested: 5 ug/ml) (H3-mini2-cl9+10+11-tri). B1: no binding (tested: 5 ug/ml) (H3mini2-cl9+10+11-GCN4); no binding (tested: 5 ug/ml) (H3-mini2-cl9+10+11+12); no binding (tested: 5 ug/ml) (H3-mini2-cl9+10+12). B1: no binding (tested: 5 ug/ml) [4]; no binding (tested: 5 ug/ml) [5]; no binding (tested: 5 ug/ml) (H3-mini2-cl9+13). B1: no binding (tested: 5 ug/ml) (H3-mini2-cl9+10+11+13); no binding (tested: 5 ug/ml) [6]; no binding (tested: 5 ug/ml) [7]. B1: no binding (tested: 5 ug/ml) (H3-mini3-cl9+10+11+12+14); no binding (tested: 5 ug/ml) (H3-mini4-cl9+10+11+12+14); no binding (tested: 5 ug/ml) [8].

From US20160355553A1 (Janssen / Centocor, published 2016)
